Source: the supplement of paper PMC7877785
± gives the uncertainty stated by the source.

Assay: self-splicing fitness, log relative to wild type (ln ratio); higher = more splicing; Tetrahymena group I intron in knt gene, E. coli kanamycin selection, DiMSum; sequences stand for … in CUCUCU…GGAGGGAAAAGUUAUCAGGCAUGCACCUGGUAGCUAGUCUUUAAACCAAUAGAUUGCAUCGGUUUAAAAGGCAAGACCGUCAAAUUGCGGGAAAGGGGUCAACAGCCGUUCAGUACCAAGUCUCAGGGGAAACUUUGAGAUGGCCUUGCAAAGGGUAUGGUAAUAAGCUGACGGACAUGGUCCUAACCACGCAGCCAAGUCCUAAGUCAACAGAUCUUCUGUUGAUAUGGAUGCAGUUCACAGACUAAAUGUCGGUCGGGGAAGAUGUAUUCUUCUCAUAAGAUAUAGUCGGACCUCUCCUUAAUGGGAGCUAGCGGAUGAAGUGAUGCAACACUGGAGCCGCUGGGAACUAAUUUGUAUGCGAAAGUAUAUUGAUUAGUUUUGGAGUACUCGUGGUCG
In short: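 Library with all eight P1ex-region intron nucleotides randomised, intron inside the knt kanamycin-resistance gene on pET-22b(+), in E. coli BL21(DE3). Cells grew overnight at 37°C or 30°C on LB agar with or without 25 μg/mL kanamycin (plus 100 μg/mL carbenicillin, 50 μM IPTG, 0.2% rhamnose), in six replicate transformations. Pooled colonies were amplicon-sequenced on Illumina HiSeq 2500. DiMSum fitness is the error-weighted combination of wild-type-normalised replicate fold changes, kanamycin versus none.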

| Sequence | self-splicing fitness (ln) (30 °C) | self-splicing fitness (ln) (37 °C) |
| --- | --- | --- |
| ACGGAGCAAUAUUACGGUCG | -2.48 ± 0.11 | -0.856 ± 0.11 |
| GACCAGCAAUAUUACGAAGC | -0.849 ± 0.062 | -0.511 ± 0.093 |
| GUGUAGCAAUAUUACGAGAU | -2.83 ± 0.26 | -1.23 ± 0.22 |
| GGGCAGCAAUAUUACGUUAU | -1.68 ± 0.097 | -0.345 ± 0.12 |
| AGGUAGCAAUAUUACGUCAU | -2.147 ± 0.016 | -1.03 ± 0.034 |
| UUGGAGCAAUAUUACGGUUA | -2.08 ± 0.45 | -1.49 ± 0.25 |
| GCCCAGCAAUAUUACGAGCA | -1.49 ± 0.11 | -0.143 ± 0.091 |
| AAAAAGCAAUAUUACGUAAC | -2.45 ± 0.13 | -1.12 ± 0.13 |
| UCGGAGCAAUAUUACGUCAA |  | -2.12 ± 0.38 |
| GAUUAGCAAUAUUACGUACA | -1.89 ± 0.24 | -0.352 ± 0.15 |
| CUUGAGCAAUAUUACGCUAA | -4.05 ± 0.31 | -3.36 ± 0.35 |
| GCCCAGCAAUAUUACGUUCA | -2.45 ± 0.16 | -0.504 ± 0.11 |
| AUACAGCAAUAUUACGGUAU | -3.46 ± 0.18 | -2.99 ± 0.2 |
| UUAUAGCAAUAUUACGAGGA | -2.68 ± 0.3 | -1.01 ± 0.23 |
| GGCCAGCAAUAUUACGUGCU | -3.59 ± 0.15 | -2.52 ± 0.2 |
| CUACAGCAAUAUUACGUUAC | -4.4 ± 0.26 | -3.72 ± 0.33 |
| UCCAAGCAAUAUUACGGCGU | -1.95 ± 0.091 | -0.529 ± 0.1 |
| AGAUAGCAAUAUUACGCCGG | -2.14 ± 0.44 |  |
| AGUGAGCAAUAUUACGGGUA | -3.22 ± 0.23 | -1.61 ± 0.26 |
| UUAUAGCAAUAUUACGCGAA | -1.97 ± 0.2 | -1.53 ± 0.34 |
| AUCAAGCAAUAUUACGCCAA | -1.99 ± 0.16 | -0.947 ± 0.13 |
| AAUGAGCAAUAUUACGGUCU | -1.96 ± 0.13 | -0.956 ± 0.13 |
| GCAGAGCAAUAUUACGAUCC | -2.13 ± 0.3 | -0.288 ± 0.46 |
| CUUUAGCAAUAUUACGUCGG | -1.79 ± 0.11 | -1.25 ± 0.12 |
| CGCUAGCAAUAUUACGCUAA | -1.93 ± 0.22 | -1.53 ± 0.25 |

| Sequence | self-splicing fitness (ln) (30 °C) | self-splicing fitness (ln) (37 °C) |
| --- | --- | --- |
| GUUAAGCAAUAUUACGAUGU | -1.16 ± 0.088 | 0.226 ± 0.13 |
| AGACAGCAAUAUUACGUCAG | -2.3 ± 0.092 | -0.807 ± 0.11 |
| UGUAAGCAAUAUUACGGCUU | -1.01 ± 0.12 | -1.15 ± 0.15 |
| CUGGAGCAAUAUUACGACCG | -0.607 ± 0.082 | 0.106 ± 0.14 |
| AUGUAGCAAUAUUACGAUCC | -0.944 ± 0.14 | -0.204 ± 0.15 |
| UGUGAGCAAUAUUACGUCGU | -2.1 ± 0.3 |  |
| UUUUAGCAAUAUUACGGCAC |  | -0.642 ± 0.28 |
| UGCAAGCAAUAUUACGGCGG | -0.854 ± 0.046 | -0.116 ± 0.068 |
| GUGGAGCAAUAUUACGUCGC |  | -1.71 ± 0.42 |
| GCAUAGCAAUAUUACGGGUU | -1.79 ± 0.091 | -0.302 ± 0.088 |
| GUUUAGCAAUAUUACGAUAU | -1.18 ± 0.14 | -0.528 ± 0.16 |
| GCGGAGCAAUAUUACGACGA | -0.227 ± 0.16 | -0.189 ± 0.14 |
| UACUAGCAAUAUUACGGAGG | -2.77 ± 0.17 | -1.28 ± 0.13 |
| UUUGAGCAAUAUUACGGCUA | -0.914 ± 0.23 | -1.2 ± 0.21 |
| UCUAAGCAAUAUUACGCGCC |  | -2.67 ± 0.38 |
| CGCAAGCAAUAUUACGUAAU | -3.89 ± 0.2 | -2.14 ± 0.17 |
| GAUCAGCAAUAUUACGCAUA | -0.521 ± 0.082 | -0.0106 ± 0.084 |
| AGCUAGCAAUAUUACGGUGG | -2.04 ± 0.092 | -2.46 ± 0.17 |
| AAACAGCAAUAUUACGCGAG | -1.6 ± 0.076 | -1.12 ± 0.096 |
| CUACAGCAAUAUUACGUGCC | -2.73 ± 0.26 | -2.39 ± 0.38 |
| AAGUAGCAAUAUUACGUGAC | -2.41 ± 0.19 | -1.85 ± 0.4 |
| AAAGAGCAAUAUUACGGGUC | -3.24 ± 0.21 | -3.09 ± 0.37 |
| GGUAAGCAAUAUUACGGUCG | -0.945 ± 0.066 | -0.215 ± 0.1 |
| GACAAGCAAUAUUACGUGCU | -2.93 ± 0.082 | -1.82 ± 0.078 |
| CUCAAGCAAUAUUACGUAAC | -4.43 ± 0.19 | -2.08 ± 0.15 |

| Sequence | self-splicing fitness (ln) (30 °C) | self-splicing fitness (ln) (37 °C) |
| --- | --- | --- |
| GCGCAGCAAUAUUACGCCCU |  | 0.00379 ± 0.44 |
| CUUAAGCAAUAUUACGUACU | -2.82 ± 0.16 | -2.67 ± 0.23 |
| GCGUAGCAAUAUUACGCCGG | -2.21 ± 0.21 | -3.92 ± 0.42 |
| CGCAAGCAAUAUUACGAGCC | -1.07 ± 0.095 | -0.349 ± 0.12 |
| AAUAAGCAAUAUUACGGGCU | -1.54 ± 0.14 | -1.6 ± 0.14 |
| CGCGAGCAAUAUUACGCUAC |  | -2.08 ± 0.25 |
| CGCUAGCAAUAUUACGCCUA | -2.65 ± 0.25 | -3.05 ± 0.28 |
| CGUGAGCAAUAUUACGCAUA | -3.2 ± 0.28 | -1.18 ± 0.34 |
| CAACAGCAAUAUUACGUAAA | -2.42 ± 0.069 | -1.91 ± 0.098 |
| CUGUAGCAAUAUUACGGUGA | -3.22 ± 0.22 | -2.28 ± 0.24 |
| AGAGAGCAAUAUUACGGGGU |  | -2.65 ± 0.26 |
| CCAUAGCAAUAUUACGUUCA | -3.17 ± 0.26 | -2.6 ± 0.44 |
| CCUCAGCAAUAUUACGGGCG | -1.59 ± 0.069 | -0.619 ± 0.074 |
| GCAAAGCAAUAUUACGACUG | -1.3 ± 0.13 | -0.673 ± 0.15 |
| AGCAAGCAAUAUUACGCACG | -1.44 ± 0.097 | -0.144 ± 0.13 |
| CGGCAGCAAUAUUACGUGAU | -3.11 ± 0.12 | -1.57 ± 0.13 |
| ACACAGCAAUAUUACGGUGU | -5.22 ± 0.26 | -2.92 ± 0.21 |
| UCCAAGCAAUAUUACGCCUG | -4.15 ± 0.42 | -2.26 ± 0.27 |
| GCAGAGCAAUAUUACGCUAA |  | -2.95 ± 0.43 |
| GGACAGCAAUAUUACGUGAA | -0.306 ± 0.057 | -0.142 ± 0.062 |
| ACAUAGCAAUAUUACGAUGG | -1.64 ± 0.088 | -0.176 ± 0.11 |
| UACAAGCAAUAUUACGGUUG | -2.1 ± 0.11 | -1.91 ± 0.15 |
| CAGAAGCAAUAUUACGCUUU | -2.99 ± 0.17 | -3.59 ± 0.26 |
| UCCGAGCAAUAUUACGUCUU | -3.54 ± 0.25 | -1.62 ± 0.2 |
| GAGAAGCAAUAUUACGAUAU | -2.18 ± 0.16 | -0.855 ± 0.15 |

| Sequence | self-splicing fitness (ln) (30 °C) | self-splicing fitness (ln) (37 °C) |
| --- | --- | --- |
| UCCAAGCAAUAUUACGGACG | -4.26 ± 0.2 | -2.82 ± 0.16 |
| GCCCAGCAAUAUUACGUGGG | -3.2 ± 0.12 | -3.07 ± 0.2 |
| ACGGAGCAAUAUUACGUGUC | -4.54 ± 0.46 | -1.8 ± 0.18 |
| CGCUAGCAAUAUUACGAUGG | -0.85 ± 0.075 | 0.251 ± 0.083 |
| AUUUAGCAAUAUUACGGGUC |  | -2.23 ± 0.34 |
| CGCUAGCAAUAUUACGGUUU | -1.69 ± 0.053 | -0.856 ± 0.074 |
| CGCGAGCAAUAUUACGUCGC | -2.79 ± 0.24 | -3.48 ± 0.37 |
| CGCCAGCAAUAUUACGUCAG | -0.444 ± 0.073 | 0.203 ± 0.095 |
| AGGAAGCAAUAUUACGGAGG | -2.71 ± 0.34 | -2.28 ± 0.35 |
| AUAAAGCAAUAUUACGAUGU | -0.252 ± 0.072 | 0.28 ± 0.099 |
| CUGAAGCAAUAUUACGAGCG | 0.242 ± 0.072 | 0.0253 ± 0.1 |
| CCAGAGCAAUAUUACGGCUU | -3.75 ± 0.28 | -1.8 ± 0.2 |
| AAGUAGCAAUAUUACGCGCU | -1.47 ± 0.11 | -0.822 ± 0.12 |
| GCCGAGCAAUAUUACGCUAA | -1.86 ± 0.2 | -2.62 ± 0.23 |
| UGAGAGCAAUAUUACGGGGG | -3.4 ± 0.31 | -1.99 ± 0.22 |
| CGAUAGCAAUAUUACGGGAC | -4.19 ± 0.36 | -2.42 ± 0.27 |
| GCGCAGCAAUAUUACGCUGG | -2.1 ± 0.1 | -2.13 ± 0.16 |
| GCCCAGCAAUAUUACGGAUU | 0.0408 ± 0.057 | -0.0391 ± 0.08 |
| ACUGAGCAAUAUUACGUAGU | -3.48 ± 0.19 | -2.41 ± 0.25 |
| CAAUAGCAAUAUUACGCCAC | -2.84 ± 0.28 |  |
| UGUCAGCAAUAUUACGGGUA | -0.294 ± 0.093 | 0.208 ± 0.11 |
| GUUCAGCAAUAUUACGACUU | -0.0631 ± 0.073 | -0.409 ± 0.079 |
| AAAAAGCAAUAUUACGCAUC | -2.24 ± 0.13 | -1.34 ± 0.15 |
| UCACAGCAAUAUUACGUCGA | -0.572 ± 0.068 | -0.734 ± 0.08 |
